In patent publication US20250313638A1 (KISOJI BIOTECHNOLOGY, published 2025):
Like-named read-outs stand apart in the source and are kept apart here. Blank lines part the entries; values can stand above or below the binder they belong to.

What was measured:
[1] = molecular target: T1, human CD47 on cells (HEK293T cells, human blood cells, primary human T cells) (human, UniProt Q08722 19-323); test: flow cytometry on primary human T cells
T1 construct: Endogenous CD47 of human cells; For blood cells and T cells it is inferred from the specificity of the anti-CD47 module

[2] = molecular target: T2, recombinant human PD-1 protein (human, UniProt Q15116 25-167); test: ELISA: recombinant human PD-1 coated on the plate, anti-human-Fc-HRP, chemiluminescence
T2 construct: Bought (Cedarlane Cat. No. HPLC-10377-H08H-100); also called human recombinant PD1 protein; PD-1 recombinant protein
T2 sequence (Q15116 25-167 limits assumed): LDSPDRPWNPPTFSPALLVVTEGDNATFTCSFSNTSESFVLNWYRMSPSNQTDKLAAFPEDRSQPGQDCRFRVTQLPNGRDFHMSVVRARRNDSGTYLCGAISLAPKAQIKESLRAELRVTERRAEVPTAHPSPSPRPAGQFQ
Procedure: (§1) Briefly, recombinant proteins were coated on 96-well plates. Plates were covered and left at 4° C. overnight. The next day, plates were washed once with PBS and blocked with blocking buffer for 1 hour at room temperature. Binding agents were tested at the indicated concentration (357 nM starting concentration, followed by 12 one in four serial dilutions for FIG. 9B lower panel), diluted in the blocking buffer, and incubated for 1 hour at 37° C. After incubation, plates were washed three times with washing buffer. Plates were incubated with anti-human-Fc-HRP (Sigma-Aldrich, Cat. No. AP113P) diluted at 1:5000 for 1 hour at room temperature, then washed three times with PBS-T washing buffer. The signal was developed with SuperSignal™ ELISA Pico Chemiluminescent Substrate (Thermofisher, Cat. No. 37069). The plates were read on a SpectraMax™ i3x Multi-Mode Microplate Reader (Molecular Devices).

[3] = molecular target: PD-1 on the Jurkat effector cells of the PD-1/PD-L1 blockade bioassay (UniProt Q15116 25-288, limits assumed); test: cell-based or functional assay
Chain of PD-1 on the Jurkat effector cells of the PD-1/PD-L1 blockade bioassay (Q15116 25-288 limits assumed): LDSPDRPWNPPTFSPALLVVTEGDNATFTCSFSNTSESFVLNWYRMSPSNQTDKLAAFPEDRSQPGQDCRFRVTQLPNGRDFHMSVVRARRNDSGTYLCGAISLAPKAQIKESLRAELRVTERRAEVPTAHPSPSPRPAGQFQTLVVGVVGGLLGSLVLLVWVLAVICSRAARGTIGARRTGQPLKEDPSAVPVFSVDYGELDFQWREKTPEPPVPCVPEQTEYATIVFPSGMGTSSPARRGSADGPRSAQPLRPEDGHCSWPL

[4] = molecular target: T3, BSA; test: ELISA: BSA coated on the plate, anti-human-Fc-HRP, chemiluminescence
T3 construct: also called control protein (BSA)
T3 sequence (chain, as listed by the source limits assumed): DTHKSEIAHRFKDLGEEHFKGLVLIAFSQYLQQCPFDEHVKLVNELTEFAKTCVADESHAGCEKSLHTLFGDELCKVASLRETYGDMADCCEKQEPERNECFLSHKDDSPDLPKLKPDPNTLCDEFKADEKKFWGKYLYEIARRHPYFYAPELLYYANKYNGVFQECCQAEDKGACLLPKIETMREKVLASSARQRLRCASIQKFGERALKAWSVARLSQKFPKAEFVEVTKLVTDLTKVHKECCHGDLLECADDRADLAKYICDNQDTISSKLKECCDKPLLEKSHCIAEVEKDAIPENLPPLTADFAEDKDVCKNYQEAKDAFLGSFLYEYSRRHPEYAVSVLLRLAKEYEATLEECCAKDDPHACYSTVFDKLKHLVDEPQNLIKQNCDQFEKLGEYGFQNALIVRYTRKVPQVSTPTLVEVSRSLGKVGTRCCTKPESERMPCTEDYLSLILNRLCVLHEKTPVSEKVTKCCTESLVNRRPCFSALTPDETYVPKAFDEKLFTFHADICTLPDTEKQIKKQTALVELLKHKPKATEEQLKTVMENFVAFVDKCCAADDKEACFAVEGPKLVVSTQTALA
Procedure: as §1

[5] = molecular target: T4, recombinant rat PD-1 protein (rat, UniProt D3ZIN8 25-169); test: ELISA: recombinant rat PD-1 coated on the plate, anti-human-Fc-HRP, chemiluminescence
T4 construct: also called rat recombinant PD1 protein
T4 sequence: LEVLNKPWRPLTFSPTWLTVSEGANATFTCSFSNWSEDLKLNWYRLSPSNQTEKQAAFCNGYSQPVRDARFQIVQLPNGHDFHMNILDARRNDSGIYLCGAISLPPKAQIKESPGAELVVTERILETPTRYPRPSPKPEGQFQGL
Procedure: as §1

[6] = molecular target: T2, recombinant human PD-1 protein; test: ELISA: recombinant human PD-1 coated on the plate, anti-human-Fc-HRP, chemiluminescence; remark: listed apart in the source
Procedure: as §1

[7] = molecular target: T5, recombinant cynomolgus monkey PD-1 protein (cynomolgus monkey, UniProt B0LAJ3 25-170); test: ELISA: recombinant cynomolgus PD-1 coated on the plate, anti-human-Fc-HRP, chemiluminescence
T5 construct: also called cynomolgus monkey recombinant PD1 protein
T5 sequence (B0LAJ3 entry or part of it limits assumed): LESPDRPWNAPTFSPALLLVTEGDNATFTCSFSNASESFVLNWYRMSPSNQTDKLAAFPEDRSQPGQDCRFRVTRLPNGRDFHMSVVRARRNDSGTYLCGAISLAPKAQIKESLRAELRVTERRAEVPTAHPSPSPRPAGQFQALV
Procedure: as §1

[8] = molecular target: T2, recombinant human PD-1 protein; test: ELISA: recombinant human PD-1 coated on the plate, anti-human-Fc-HRP, chemiluminescence; remark: listed apart in the source
Procedure: as §1

[9] = molecular target: T6, human PD-1 on CHO-PD1 cells (human, UniProt Q15116 25-288); test: flow cytometry on CHO-PD1 cells, APC anti-human-Fc secondary antibody
T6 construct: also called CHO-PD-1 cell line
T6 sequence (Q15116 25-288 limits assumed): as the sequence (Q15116 25-288 limits assumed) above

[10] = molecular target: T7, recombinant human CD47 protein (human, UniProt Q08722 19-139); test: ELISA: recombinant human CD47 coated on the plate, chemiluminescence
T7 construct: Bought (Cedarlane Cat. No. 12283-H08H-200); also called human recombinant CD47 protein; CD47 recombinant protein

[11] = molecular target: T8, recombinant cynomolgus CD47 protein (cynomolgus monkey, UniProt A0A5F8AK49 19-139 (rhesus entry)); test: ELISA: recombinant cynomolgus CD47 coated on the plate, chemiluminescence
T8 construct: also called cynomolgus monkey CD47 recombinant protein

- binding result [1]: no binding (tested: 350 nM)
B1: KC034 (Fc fusion)
VHH-hinge-CH2-CH3-linker-VHH-linker-VHH polypeptide chain: QVQLVESGGGSVQAGGSLRLSCAASGSTDSIEYMTWFRQAPGKAREGVAALYTHTGNTYYTDSVKGRFTISQDKAKNMAYLRMDSVKSEDTAIYTCGATRKYVPVRFALDQSSYDYWGQGTQVTVSSEPKSCDKTHTCPPCPAPELLGGPSVFLFPPKPKDTLMISRTPEVTCVVVDVSHEDPEVKFNWYVDGVEVHNAKTKPREEQYNSTYRVVSVLTVLHQDWLNGKEYKCKVSNKALPAPIEKTISKAKGQPREPQVYTLPPSREQMTKNQVSLTCLVKGFYPSDIAVEWESNGQPENNYKTTPPVLNSDGSFFLYSKLTVDKSRWQQGNVFSCSVMHEALHNHYTQESLSLSPGKAPAPAPAPAPKAQVQLVESGGGSVQAGGSLRLSCAASGSTDSIEYMTWFRQAPGKAREGVAALYTHTGNTYYTDSVKGRFTISQDKAKNMAYLRMDSVKSEDTAIYTCGATRKYVPVRFALDQSSYDYWGQGTQVTVSSGGGGSGGGGSGGGGSEVQLVESGGGLVQPGGSLRLSCAASGDIYKSFDMGWYRQAPGKQRDLVAVIGSRGNNRGRTNYADSVKGRFTISRDGTGNTVYLLMNKLRPEDTAIYYCNTAPLVAGRPWGRGTLVTVSS
notes: also called (HEWL)

- EC50 (read off the curve) [2]: ~0.5 nM
B2: KC067 (Fc fusion)
chain: QVQLVESGGGSVQAGGSLRLSCAASGSTDSIEYMTWFRQAPGKAREGVAALYTHTGNTYYTDSVKGRFTISQDKAKNMAYLRMDSVKSEDTAIYTCGATRKYVPVRFALDQSSYDYWGQGTQVTVSSEPKSCDKTHTCPPCPAPELLGGPSVFLFPPKPKDTLMISRTPEVTCVVVDVSHEDPEVKFNWYVDGVEVHNAKTKPREEQYNSTYRVVSVLTVLHQDWLNGKEYKCKVSNKALPAPIEKTISKAKGQPREPQVYTLPPSREQMTKNQVSLTCLVKGFYPSDIAVEWESNGQPENNYKTTPPVLNSDGSFFLYSKLTVDKSRWQQGNVFSCSVMHEALHNHYTQESLSLSPGKAPAPAPAPAPKAQVQLQESGGGLVQPGGSLRLSCAASGFTFSNYGMSWVRQAPGEGLEWVSSIDSTGGTTRYADSVKGRFTISRDNAKNALYLQMNSLKPEDTAVYYCAKDFLSWMPRGQGTQVTVSSGGGGSGGGGSGGGGSQVQLVESGGGSVQAGGSLRLSCAASGSTDSIEYMTWFRQAPGKAREGVAALYTHTGNTYYTDSVKGRFTISQDKAKNMAYLRMDSVKSEDTAIYTCGATRKYVPVRFALDQSSYDYWGQGTQVTVSS
notes: the ranges are mine

- EC50 (read off the curve), PD-1/PD-L1 blockade NFAT-luciferase reporter [3]: ~2 nM
- binding result [4]: no binding (tested: about 700 nM)
- EC50 (read off the curve) [5]: ~0.1 nM
- EC50 (read off the curve) [6]: ~0.1 nM
- EC50 (read off the curve) [7]: ~0.1 nM
- EC50 (read off the curve) [8]: ~0.2 nM
- EC50 (read off the curve) [2]: ~0.2 nM
B3: KC036 (Fc fusion)
chain: QVQLVESGGGSVQAGGSLRLSCAASGSTDSIEYMTWFRQAPGKAREGVAALYTHTGNTYYTDSVKGRFTISQDKAKNMAYLRMDSVKSEDTAIYTCGATRKYVPVRFALDQSSYDYWGQGTQVTVSSEPKSCDKTHTCPPCPAPELLGGPSVFLFPPKPKDTLMISRTPEVTCVVVDVSHEDPEVKFNWYVDGVEVHNAKTKPREEQYNSTYRVVSVLTVLHQDWLNGKEYKCKVSNKALPAPIEKTISKAKGQPREPQVYTLPPSREQMTKNQVSLTCLVKGFYPSDIAVEWESNGQPENNYKTTPPVLNSDGSFFLYSKLTVDKSRWQQGNVFSCSVMHEALHNHYTQESLSLSPGKAPAPAPAPAPKAQVQLQESGGGWVQPGGSLRLSCVASGFTFSRSSMSWHRQAPGKERDLVAIISSSGIITHYSDSVKGRFTISRDNAKDTVYLQMNSLKPEDTAVYVCNAVLDDDSGDYWGQGTQVTVSSGGGGSGGGGSGGGGSQVQLVESGGGSVQAGGSLRLSCAASGSTDSIEYMTWFRQAPGKAREGVAALYTHTGNTYYTDSVKGRFTISQDKAKNMAYLRMDSVKSEDTAIYTCGATRKYVPVRFALDQSSYDYWGQGTQVTVSS
notes: May comprise a His-tag or not; also called (HEWL)

- binding result [1]: no binding (tested: 350 nM)
- binding result [9]: no binding
- binding result [6]: no binding (tested: about 700 nM)
- binding result [7]: no binding (tested: about 700 nM)
B4: KC035 (Fc fusion)
chain: QVQLVESGGGSVQAGGSLRLSCAASGSTDSIEYMTWFRQAPGKAREGVAALYTHTGNTYYTDSVKGRFTISQDKAKNMAYLRMDSVKSEDTAIYTCGATRKYVPVRFALDQSSYDYWGQGTQVTVSSEPKSCDKTHTCPPCPAPELLGGPSVFLFPPKPKDTLMISRTPEVTCVVVDVSHEDPEVKFNWYVDGVEVHNAKTKPREEQYNSTYRVVSVLTVLHQDWLNGKEYKCKVSNKALPAPIEKTISKAKGQPREPQVYTLPPSREQMTKNQVSLTCLVKGFYPSDIAVEWESNGQPENNYKTTPPVLNSDGSFFLYSKLTVDKSRWQQGNVFSCSVMHEALHNHYTQESLSLSPGKAPAPAPAPAPKAQVQLVESGGGSVQAGGSLRLSCAASGSTDSIEYMTWFRQAPGKAREGVAALYTHTGNTYYTDSVKGRFTISQDKAKNMAYLRMDSVKSEDTAIYTCGATRKYVPVRFALDQSSYDYWGQGTQVTVSSGGGGSGGGGSGGGGSQVQLVESGGGSVQAGGSLRLSCAASGSTDSIEYMTWFRQAPGKAREGVAALYTHTGNTYYTDSVKGRFTISQDKAKNMAYLRMDSVKSEDTAIYTCGATRKYVPVRFALDQSSYDYWGQGTQVTVSS
notes: Three anti-HEWL VHHs on an Fc; May comprise a His-tag or not; also called negative control

- EC50 (read off the curve) [10]: ~0.5 nM
- EC50 (read off the curve) [11]: ~0.1 nM
B5: monoclonal anti-CD47 antibody clone B6H12 (antibody)
chain: EVQLVESGGDLVKPGGSLKLSCAASGFTFSGYGMSWVRQTPDKRLEWVATITSGGTYTYYPDSVKGRFTISRDNAKNTLYLQIDSLKSEDTAIYFCARSLAGNAMDYWGQGTSVTVSSGGGGSGGGGSGGGGSDIVMTQSPATLSVTPGDRVSLSCRASQTISDYLHWYQQKSHESPRLLIKFASQSISGIPSRFSGSGSGSDFTLSINSVEPEDVGVYYCQNGHGFPRTFGGGTKLEIK
